Test system: MS2 coat protein
Assay: apparent KD of MS2 coat protein; designed switch direction (-1 OFF switch, 1 ON switch): -1; higher = weaker reporter binding
Summary of the method: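 Designed RNA switches were transcribed on Illumina chips by stalled E. coli RNA polymerase and titrated with SNAP-549-labelled MS2 coat protein from 0.7 or 1.5 nM, doubling to 3 µM. Step length ran from 0.8–1.5 h at the lowest concentration to 10–20 min at the highest. The apparent KD is the median over clusters for each design, from curve-fitted normalised cluster fluorescence.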

[1] = input ligand: microRNA oligo, concentration not stated
[2] = Eterna round: R95, input ligand: microRNA oligo, concentration not stated
[3] = Eterna round: R95, input ligand: FMN 200 uM
[4] = Eterna round: R95, input ligand: none

Sequence	apparent KD of MS2 coat protein (input ligand: FMN 200 uM)	apparent KD of MS2 coat protein [1]	apparent KD of MS2 coat protein (input ligand: none)	apparent KD of MS2 coat protein [2]	apparent KD of MS2 coat protein [3]	apparent KD of MS2 coat protein [4]
GGGUGUGAAGGAUAUACAUGAGGAUCACCCAUGUGAGAGGAGGAGGUUGAGGAGGUUGGUAGAAGGUCAGGAGG [JR_Exclusion3_Sub011] (Eterna round: R96, puzzle: Exclusion 3)	219 nM	149 nM	220 nM	–	–	–
GGGUGUGAAGGAUAUACAUGAGGAUCACCCAUGUGAGAGGAGGAGGUUGAGGAGGUUGGUAGAAGGUCAGGAGG [JR_Exclusion3_Sub011] (puzzle: Exclusion 3)	–	–	–	120 nM	–	–
GGUACUAACACGAAAGUGUUAGUACAAUAAGCUAGUGGAACAUGAGGAUCACCCAUGUCCUCAUUAGCUCGUCUUAU [Mat - Sensor v3 - Turn-off var 2 - D36] (puzzle: Sensor v3, turn-off variant 2)	–	–	–	43.8 nM	14.5 nM	15 nM
GGUACUAACACGAAAGUGUUAGUACUAUAAGCUUGUGUUACAUGAGGAUCACCCAUGUCCUCAUAGGCUCGUCUUAU [JL-sv3-2.18 mat747 mod] (puzzle: Sensor v3, turn-off variant 2)	–	–	–	29.9 nM	292 nM	252 nM
GGUACUAACACGAGAGUGUUAGUACUAUAAGCUUGUGUUACAUGAGGAUCACCCAUGUCCUCAUAAGCUCGUCUUGA [Mat - Sensor v3 - Turn-off var 2 - D90] (puzzle: Sensor v3, turn-off variant 2)	–	–	–	974 nM	33 nM	36.2 nM
GGUACUAACACGAUAGUGUUAGUACUAUAAGCUUGUGUUACAUGAGGAUCACCCAUGUCCUCAUAAGCUCGUCUUGU [Mat - Sensor v3 - Turn-off var 2 - D89] (puzzle: Sensor v3, turn-off variant 2)	–	–	–	52.9 nM	49.8 nM	44.8 nM
GGUCAGACGGUAGGAUAUCCAUAUCGAGUGACUCUUUCAUAACAUGAGGAUCACCCAUGUCGGUGGGAGAAGGGCCGUACGGCG [salish99_ExNG02_R04_005] (Eterna round: R96, puzzle: Exclusion NG 2)	61.5 nM	29.6 nM	42.7 nM	–	–	–
GGUCAGAUGGUAGGAUAUCCAUAUCGAGUGACCCUUUCAUAACAUGAGGAUCACCCAUGUCGGUGGGAGAAGGGCCGUACGGUG [salish99_ExNG02_R04_023] (Eterna round: R96, puzzle: Exclusion NG 2)	39.5 nM	41.2 nM	48.8 nM	–	–	–
GGUCAGAUGGUAGGAUAUCCAUAUCGAGUGACCCUUUCAUAACAUGAGGAUCACCCAUGUCGGUGGGAGAAGGGCUGUACGGCG [salish99_ExNG02_R04_021] (Eterna round: R96, puzzle: Exclusion NG 2)	34.8 nM	19.1 nM	43.3 nM	–	–	–
GGUCAUCAAGUCAGGAUAUCGUCAAAUCAAUCAGGCGAGAAGGGACAUGAGGAUCACCCAUGUCGACUCAUCAG [Ex4 #5] (Eterna round: R97, puzzle: Brourd's mod of Exclusion 4)	123 nM	–	34.3 nM	–	–	–
GGUCCACAUGAGGAUCACCCAUGUUAGGAUAUCUCCCGCCUCCUCACUAGAGGCGGACAGAGAAGGAACAUCAA [Raerge] (puzzle: Exclusion 1)	–	–	–	23.2 nM	–	–
GGUCCUCCGGAGGAUAUGGAACUGGAGGUAGUACCAGAAGGCCGAACAUGAGGAUCACCCAUGUGCCCGUAAAA [Aarlean] (puzzle: Exclusion 6)	–	–	–	17 nM	76.8 nM	18.5 nM
GGUCGGCGAGGAUAUACAUGAGGAUCACCCAUGUGAUAGAUUGCUUCGUGAGAAGUAUGUAGAAGGCGCUGACG [jl-ex3-4.04 jl mod] (Eterna round: R97, puzzle: Exclusion 3)	320 nM	–	38.7 nM	–	–	–
GGUCGGGCAAAGGAUGCCCACAUGAGGAUCACCCAUGUACAAGACUUUAAGGUGCGUAAGCGCAUACGGCUCGUUAA [Eternabot (L1) Solution 26] (Eterna round: R97, puzzle: Sensor, turn-off variant 1)	15.9 nM	–	16.5 nM	–	–	–
GGUCGUCAAGUCAGGAUAUCGUUUGGUCGGUGUGACGAGAAGGGACAUGAGGAUCACCCAUGUCGUCUCAUCAG [Ex4 #29] (Eterna round: R97, puzzle: Brourd's mod of Exclusion 4)	31 nM	–	30.8 nM	–	–	–
GGUCUACAUGAGGAUCACCCAUGUAAGGAUAUCGUCACUGGAGCCUCGGCUCCAGUGACGAGAAGGUACGUAAU [E1/12-A2] (Eterna round: R97, puzzle: Exclusion 1)	31.5 nM	–	34.5 nM	–	–	–
GGUCUUCAAGUCAGGAUAUCGUCUAAUCGAUCUGGCGAGAAGGGACAUGAGGAUCACCCAUGUCGUCUCAUCAG [Ex4 #16] (Eterna round: R97, puzzle: Brourd's mod of Exclusion 4)	22.7 nM	–	17.7 nM	–	–	–
GGUGAAGCAGGAUAUGUAUCGAUAUACAUGAGGAUCACCCAUGUCAUGUAGAAACCGCAUAUAGAAGGGCUUCACC [Exclusion 5 (FMN-MS2 slide v.6)] (Eterna round: R97, puzzle: Exclusion 5)	163 nM	–	47.4 nM	–	–	–

Sequence	apparent KD of MS2 coat protein (input ligand: FMN 200 uM)	apparent KD of MS2 coat protein [1]	apparent KD of MS2 coat protein (input ligand: none)	apparent KD of MS2 coat protein [2]	apparent KD of MS2 coat protein [3]	apparent KD of MS2 coat protein [4]
GGUGAGAGCAAGGAUAUGCAGAAGUGAGAAAGUGCAGAAGGUGCUACAUGAGGAUCACCCAUGUUGGAUGUGUU [JR_E6_Sub015] (puzzle: Exclusion 6)	–	–	–	34.2 nM	–	–
GGUGCGUAUGUGAGGAUAUGCUGGUCCUUGGAUCGGCAGAAGGUACAUGAGGAUCACCCAUGUGGUGUCGUUCU [salish99_Bmod_ex4_105] (puzzle: Brourd's mod of Exclusion 4)	–	–	–	232 nM	–	–
GGUGCGUCUGUGAGGAUAUGCUGGUCCUUGGAUCAGCAGAAGGCACAUGAGGAUCACCCAUGUGGUGUCGUACC [salish99_Bmod_Ex4_028] (puzzle: Brourd's mod of Exclusion 4)	–	–	–	143 nM	–	–
GGUGCUGGCGCGUCGGUGUUGGUGCAAUAAGCUUGUGAAACAUGAGGAUCACCCAUGUCCUCAUAAGCUCGUCUUAU [salish99_TOv2_r2_086] (Eterna round: R96, puzzle: Sensor v3, turn-off variant 2)	13.7 nM	334 nM	17.7 nM	–	–	–
GGUGCUGGCGCGUCGGUGUUGGUGCAAUAAGCUUGUGAAACAUGAGGAUCACCCAUGUCCUCAUAAGCUCGUCUUAU [salish99_TOv2_r2_086] (puzzle: Sensor v3, turn-off variant 2)	–	–	–	529 nM	17.7 nM	15.9 nM
GGUGGACAUGAGGAUCACCCAUGUGAGGAUAUCGGCCGGCUAGUGGCGGCUGGCUUCACGAGAAGGCGCAUAGU [Exclusion 1 V78] (puzzle: Exclusion 1)	–	–	–	65.4 nM	–	–
GGUGGACAUGAGGAUCACCCAUGUGAGGAUAUCGGCCGGUUCGUGGUGGCUGGCCUCUCGAGAAGGCGCAUAGU [Exclusion 1 V73] (puzzle: Exclusion 1)	–	–	–	44.1 nM	–	–
GGUGGACAUGAGGAUCACCCAUGUGAGGAUAUCGGCCGGUUCGUGGUGGCUGGCGUCUCGAGAAGGCGCAUAGU [Exclusion 1 V70] (puzzle: Exclusion 1)	–	–	–	28.6 nM	–	–
GGUGGACAUGAGGAUCACCCAUGUGAGGAUAUCGGCUAUCUACUCGCUGUCGGUUGCUCGAGAAGGCACAUUGU [Exclusion 1 V93] (puzzle: Exclusion 1)	–	–	–	151 nM	–	–
GGUGGACAUGAGGAUCACCCAUGUGAGGAUAUCGGCUGGCUAGUGGCUGACGGCUGCUCGAGAAGGCGCAUUGU [Exclusion 1 V86] (puzzle: Exclusion 1)	–	–	–	54.7 nM	–	–
GGUGUGAGGCAGGAUAUGCUAUAUGUUAGUAAUGCAGAAGGGUCUACAUGAGGAUCACCCAUGUGUGCGGUAGA [Ex6 #4] (Eterna round: R97, puzzle: Exclusion 6)	345 nM	–	139 nM	–	–	–
GGUUAAUGCAAGGAUAUGCUAUUAUUUUAUUUUGCAGAAGGUGCAACAUGAGGAUCACCCAUGUUGGAGGGUUU [JR_E6_Sub025] (puzzle: Exclusion 6)	–	–	–	18.6 nM	–	–
GGUUGGCGAGGAUAUACAUGAGGAUCACCCAUGUGAGAGAAAAAAGUGAGGAAGACAAGUAGAAGGCGCUGACG [salish99_ex3_r3_035] (puzzle: Exclusion 3)	–	–	–	237 nM	8540 nM	125 nM
GGUUGGCGAGGAUAUACAUGAGGAUCACCCAUGUGAGAGAAAGAAGUGAGAACGAAAAGUAGAAGGCGCUGACG [salish99_ex3_r3_058] (puzzle: Exclusion 3)	–	–	–	65.8 nM	48.1 nM	66.1 nM
GGUUGGCGAGGAUAUACAUGAGGAUCACCCAUGUGAGAGACAAAAGUGAGGAAGAAAAGUAGAAGGCGCUGACG [salish99_ex3_r3_022] (puzzle: Exclusion 3)	–	–	–	84.5 nM	2000 nM	232 nM
GGUUGGCGAGGAUAUACAUGAGGAUCACCCAUGUGAGAGAGAAAAGUGAGGAAGAAAAGUAGAAGGCGCUGACG [salish99_ex3_r3_003] (puzzle: Exclusion 3)	–	–	–	48 nM	97.3 nM	36.1 nM
GGUUGGUGAGGAUAUACAUGAGGAUCACCCAUGUGAGAGAAAGAAGUGAGGAAGAAAAGUAGAAGGCGCUGACG [salish99_ex3_r3_054] (puzzle: Exclusion 3)	–	–	–	40.4 nM	87.1 nM	54.2 nM

From the supplement of paper PMC9170038
